Results: IntAct's records for PubMed 26053850

B1: ADP-ribosylation factor-binding protein GGA1 (Homo sapiens), Q9UJY5 (parent)
chain: MEPAMEPETLEARINRATNPLNKELDWASINGFCEQLNEDFEGPPLATRLLAHKIQSPQEWEAIQALTVLETCMKSCGKRFHDEVGKFRFLNELIKVVSPKYLGSRTSEKVKNKILELLYSWTVGLPEEVKIAEAYQMLKKQGIVKSDPKLPDDTTFPLPPPRPKNVIFEDEEKSKMLARLLKSSHPEDLRAANKLIKEMVQEDQKRMEKISKRVNAIEEVNNNVKLLTEMVMSHSQGGAAAGSSEDLMKELYQRCERMRPTLFRLASDTEDNDEALAEILQANDNLTQVINLYKQLVRGEEVNGDATAGSIPGSTSALLDLSGLDLPPAGTTYPAMPTRPGEQASPEQPSASVSLLDDELMSLGLSDPTPPSGPSLDGTGWNSFQSSDATEPPAPALAQAPSMESRPPAQTSLPASSGLDDLDLLGKTLLQQSLPPESQQVRWEKQQPTPRLTLRDLQNKSSSCSSPSSSATSLLHTVSPEPPRPPQQPVPTELSLASITVPLESIKPSNILPVTVYDQHGFRILFHFARDPLPGRSDVLVVVVSMLSTAPQPIRNIVFQSAVPKVMKVKLQPPSGTELPAFNPIVHPSAITQVLLLANPQKEKVRLRYKLTFTMGDQTYNEMGDVDQFPPPETWGSL

Variants of: B1
Conditions: with bace1_human BACE1, P56817
bace1_human BACE1, P56817, sequence (P56817 whole entry): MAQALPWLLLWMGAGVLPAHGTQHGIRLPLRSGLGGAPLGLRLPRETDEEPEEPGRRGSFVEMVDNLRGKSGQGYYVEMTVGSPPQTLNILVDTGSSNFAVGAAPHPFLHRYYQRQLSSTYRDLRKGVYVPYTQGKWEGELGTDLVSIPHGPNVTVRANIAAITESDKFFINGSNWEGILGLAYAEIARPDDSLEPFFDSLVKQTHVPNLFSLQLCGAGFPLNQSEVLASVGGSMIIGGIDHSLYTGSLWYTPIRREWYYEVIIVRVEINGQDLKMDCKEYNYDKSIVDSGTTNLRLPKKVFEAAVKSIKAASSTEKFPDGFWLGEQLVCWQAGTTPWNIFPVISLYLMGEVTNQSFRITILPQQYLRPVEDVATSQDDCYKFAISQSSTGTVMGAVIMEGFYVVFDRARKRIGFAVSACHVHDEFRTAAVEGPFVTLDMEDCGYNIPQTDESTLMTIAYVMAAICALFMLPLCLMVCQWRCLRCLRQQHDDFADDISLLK

| Variant | effect of a mutation on the interaction |
| --- | --- |
| S355A | with no effect |
| S355D | with no effect |
